Publication PMC4673829, “Chemical basis for the recognition of trimethyllysine by epigenetic reader proteins” (Nature Communications, 2015)
Ends that are not written are not given here. Me3 = trimethyllysine (Kme3)

T1: JMJD2A tudor domains
T1 sequence (O75164 whole entry, species assumed, looked up): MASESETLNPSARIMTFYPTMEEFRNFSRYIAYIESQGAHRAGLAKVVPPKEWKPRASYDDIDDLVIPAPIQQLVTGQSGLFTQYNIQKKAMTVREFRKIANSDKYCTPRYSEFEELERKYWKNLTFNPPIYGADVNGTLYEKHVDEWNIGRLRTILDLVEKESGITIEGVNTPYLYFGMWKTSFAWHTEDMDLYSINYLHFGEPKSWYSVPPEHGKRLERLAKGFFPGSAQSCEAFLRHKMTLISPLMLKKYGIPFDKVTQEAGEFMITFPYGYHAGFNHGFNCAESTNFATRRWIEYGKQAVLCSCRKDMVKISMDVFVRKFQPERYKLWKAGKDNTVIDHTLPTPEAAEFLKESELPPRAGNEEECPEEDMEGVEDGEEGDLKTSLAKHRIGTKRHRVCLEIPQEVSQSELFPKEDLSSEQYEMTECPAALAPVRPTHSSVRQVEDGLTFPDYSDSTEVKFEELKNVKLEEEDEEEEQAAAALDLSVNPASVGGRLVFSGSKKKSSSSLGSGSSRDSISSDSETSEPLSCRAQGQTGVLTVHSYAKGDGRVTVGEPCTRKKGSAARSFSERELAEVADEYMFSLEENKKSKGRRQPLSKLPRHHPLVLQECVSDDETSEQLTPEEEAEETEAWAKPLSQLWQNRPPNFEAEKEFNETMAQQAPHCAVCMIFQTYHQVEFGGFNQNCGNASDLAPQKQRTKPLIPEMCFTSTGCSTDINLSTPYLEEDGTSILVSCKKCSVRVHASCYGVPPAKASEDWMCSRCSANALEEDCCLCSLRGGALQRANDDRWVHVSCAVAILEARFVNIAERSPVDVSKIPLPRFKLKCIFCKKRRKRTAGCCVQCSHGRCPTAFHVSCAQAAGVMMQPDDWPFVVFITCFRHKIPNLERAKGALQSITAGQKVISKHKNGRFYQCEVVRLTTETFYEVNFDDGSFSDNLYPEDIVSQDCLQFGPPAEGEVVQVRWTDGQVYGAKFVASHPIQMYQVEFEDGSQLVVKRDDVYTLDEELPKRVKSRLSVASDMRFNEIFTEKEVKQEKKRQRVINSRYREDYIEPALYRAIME


How the values were obtained:
[1] = target: JARID1A PHD3 domain (for ITC); experiment: ITC; 350–600 μM H3K4me3 or H3C4me3 peptide titrated to 25–40 μM protein (JMJD2A–H3C4me3: 3 mM peptide to 200 μM JMJD2A); 19 injections; Microcal Auto-iTC200; one set of sites model; 5–7 repeats
[2] = target: SGF29 tandem tudor domain (for ITC); experiment: as above
JMJD2A tudor domains = target: T1, JMJD2A tudor domains; experiment: as above
[3] = target: JARID1A PHD3 domain (for ITC); experiment: ITC; H3G4 (5 mM) titrated to JARID1A (330 μM), H3G4 (3 mM) titrated to TAF3 (200 μM); 19 injections; Microcal Auto-iTC200; one set of sites model

Sequence of SGF29 tandem tudor domain (for ITC) (Q96ES7 whole entry, the tested form may be a part): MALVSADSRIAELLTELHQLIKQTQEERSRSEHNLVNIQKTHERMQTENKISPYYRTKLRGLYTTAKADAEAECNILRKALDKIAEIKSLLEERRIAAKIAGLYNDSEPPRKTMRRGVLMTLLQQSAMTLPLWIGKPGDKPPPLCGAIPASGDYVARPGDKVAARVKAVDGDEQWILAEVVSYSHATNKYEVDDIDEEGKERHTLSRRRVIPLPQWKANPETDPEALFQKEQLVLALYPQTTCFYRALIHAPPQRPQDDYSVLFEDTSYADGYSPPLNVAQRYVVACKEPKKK

| Binder | Kd [1] | dH [1] | Kd [2] | dH [2] | Kd (JMJD2A tudor domains) | dH (JMJD2A tudor domains) | Kd [3] | dH [3] |
| --- | --- | --- | --- | --- | --- | --- | --- | --- |
| ARTK(Me3)QTARKS-OH [10-mer H3K4me3 histone peptide] | 94 nM | -11 kcal/mol | 1700 nM | -7.7 kcal/mol | 940 nM | -13.1 kcal/mol | – | – |
| ARTGQTARKS-OH [10-mer H3G4 histone peptide] | – | – | – | – | – | – | 88000 nM | -2.1 kcal/mol |
